Assays:
[1] = substrate: CCCCCCCCCCCC(=O)OCCCCN(O)C(=O)COP(=O)(O)O; details: Mycobacterium tuberculosis
[2] = substrate: O=C(COP(=O)(O)O)N(O)CCCCOP(=O)(O)O; details: Helicobacter pylori
[3] = substrate: CCCCCCCCCCCC(=O)OCCCCN(O)C(=O)COP(=O)(O)O; details: Helicobacter pylori
[4] = substrate: CCCCCCCCCCCC(=O)OCCCCN(O)C(=O)COP(=O)(O)O; details: Yersinia pestis
[5] = substrate: O=C(COP(=O)(O)O)N(O)CCCCOP(=O)(O)O; details: Oryctolagus cuniculus
[6] = substrate: O=C(COP(=O)(O)O)N(O)CCCOP(=O)(O)O; details: Oryctolagus cuniculus
[7] = substrate: O=C(COP(=O)(O)O)N(O)CCCCOP(=O)(O)O; details: Candida albicans

B1: Fructose-bisphosphate aldolase (Mycobacterium tuberculosis), P9WQA3 (protein)
chain: MPIATPEVYAEMLGQAKQNSYAFPAINCTSSETVNAAIKGFADAGSDGIIQFSTGGAEFGSGLGVKDMVTGAVALAEFTHVIAAKYPVNVALHTDHCPKDKLDSYVRPLLAISAQRVSKGGNPLFQSHMWDGSAVPIDENLAIAQELLKAAAAAKIILEIEIGVVGGEEDGVANEINEKLYTSPEDFEKTIEALGAGEHGKYLLAATFGNVHGVYKPGNVKLRPDILAQGQQVAAAKLGLPADAKPFDFVFHGGSGSLKSEIEEALRYGVVKMNVDTDTQYAFTRPIAGHMFTNYDGVLKVDGEVGVKKVYDPRSYLKKAEASMSQRVVQACNDLHCAGKSLTH
- Km [1]: 0.31 µM

B2: Fructose-bisphosphate aldolase (Helicobacter pylori (strain ATCC 700392 / 26695) (Campylobacterpylori)), P56109 (protein)
chain: MLVKGNEILLKAHKEGYGVGAFNFVNFEMLNAIFEAGNEENSPLFIQTSEGAIKYMGIDMAVGMVKTMCERYPHIPVALHLDHGTTFESCEKAVKAGFTSVMIDASHHAFEENLELTSKVVKMAHNAGVSVEAELGRLMGIEDNISVDEKDAVLVNPKEAEQFVKESQVDYLAPAIGTSHGAFKFKGEPKLDFERLQEVKRLTNIPLVLHGASAIPDNVRKSYLDAGGDLKGSKGVPFEFLQESVKGGINKVNTDTDLRIAFIAEVRKVANEDKSQFDLRKFFSPAQLALKNVVKERMKLLGSANKI
- Km [2]: 0.07 µM
- Km [3]: 4 µM

B3: Fructose-bisphosphate aldolase class II (Yersinia pestis), A0A380PJR2 (protein)
chain: MSKIFDFVKPGVITGDDVQKVFAVAKENNFALPAVNCVGTDSINAVLETAAKVRAPVIVQFSNGGAAFIAGKGVKTDAPQGAAILGAISGAHHVHQMAEHYGVPVILHTDHCAKKLLPWLDGLLDAGEKHFAATGKPLFSSHMIDLSEESLEENIEICSKYLTRMSKIGMTLEIELGCTGGEEDGVDNSHMDASSLYTQPQDVDYAYEKLNAISPRFTIAASFGNVHGVYKPGNVKLTPTILRDSQDYVSKKHNLPHNSLNFVFHGGSGSTAEEIKEAVSYGVVKMNIDTDTQWATWEGILNYYKKNEGYLQGQLGNPEGADKPNKKYYDPRVWLRAAQVTMITRLELAFKELNAIDVL
- Km [4]: 0.234 µM

B4: Fructose-bisphosphate aldolase A (Oryctolagus cuniculus), P00883 (protein)
chain: MPHSHPALTPEQKKELSDIAHRIVAPGKGILAADESTGSIAKRLQSIGTENTEENRRFYRQLLLTADDRVNPCIGGVILFHETLYQKADDGRPFPQVIKSKGGVVGIKVDKGVVPLAGTNGETTTQGLDGLSERCAQYKKDGADFAKWRCVLKIGEHTPSALAIMENANVLARYASICQQNGIVPIVEPEILPDGDHDLKRCQYVTEKVLAAVYKALSDHHIYLEGTLLKPNMVTPGHACTQKYSHEEIAMATVTALRRTVPPAVTGVTFLSGGQSEEEASINLNAINKCPLLKPWALTFSYGRALQASALKAWGGKKENLKAAQEEYVKRALANSLACQGKYTPSGQAGAAASESLFISNHAY
- Km [5]: 15 µM
- Km [6]: 264 µM

B5: Fructose-bisphosphate aldolase (Candida albicans (strain SC5314 / ATCC MYA-2876) (Yeast)), Q9URB4 (protein)
chain: MAPPAVLSKSGVIYGKDVKDLFDYAQEKGFAIPAINVTSSSTVVAALEAARDNKAPIILQTSQGGAAYFAGKGVDNKDQAASIAGSIAAAHYIRAIAPTYGIPVVLHTDHCAKKLLPWFDGMLKADEEFFAKTGTPLFSSHMLDLSEETDDENIATCAKYFERMAKMGQWLEMEIGITGGEEDGVNNEHVEKDALYTSPETVFAVYESLHKISPNFSIAAAFGNVHGVYKPGNVQLRPEILGDHQVYAKKQIGTDAKHPLYLVFHGGSGSTQEEFNTAIKNGVVKVNLDTDCQYAYLTGIRDYVTNKIEYLKAPVGNPEGADKPNKKYFDPRVWVREGEKTMSKRIAEALDIFHTKGQL
- Km [7]: 100 µM
